Data reported in the nanobody polyreactivity screen of Harvey et al. (2022).

Experiment: yeast display, Sf9 membrane polyspecificity reagent, FACS + sequencing; frameworks hold sequencing errors
Outline: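 In a synthetic yeast display library (Saccharomyces cerevisiae BJ5465), nanobody expression was induced with galactose for 36–48 hours. FACS gates were set low and high (top ~1%) using anti-HA fluorescence for expression and streptavidin fluorescence for binding of the Sf9 membrane reagent. Each polyreactivity label is drawn from the gate of origin.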

Row | Sequence | polyreactivity (PSR sort gate)
1 | QVQLVESGVGLVQSGGSLRLRCAASGFTFVSYALGWYRQAPGKERELVASISKRGGTTYYADSVKGRFTISRENAKNTVYLQMNSLKPEDTAVYYCNARDTRRYVTYDSGYDYWGQGTQVTVSS | high polyreactivity
2 | QVQLVESGGGLVQAGGSLRLSCAASGSTFRRYAMGWYRPAPGKERELVAAISRSGGTTYYADSVKGRFTISRDNAKNTVYFQMNSLKPEDTAVYYCNARYPVVRYDYWGQGTQVTVSS | high polyreactivity
3 | QVQLVESGGGLVQAGGSLRLSCAASGSTFYNYAMGWSRQAPGKERELVASITWNGGSTYYADSVKGRFTISRDNAKNTVYLQMNSLKPEDTAVYYCAADWTWTYPYDYWGQGTQVTVSS | low polyreactivity
4 | QVQIVESWGCLVQAGGSLRLSCAASVNIFNVNAMGWSRQAPRKEREFLAAITSGANSYYADSEKGRFTISRDNAKNSVFLQMNSLKPEDTAVYYCAAEDGSYYRRNRFYYWGQGTQVTVSS | high polyreactivity
5 | QVQLVESGGGLVQAGGSLRLSCAASGFIFYSNDMGWYRQAPGKERELVAAITSSGGSTYYADSVKGRFTISRDNAKNTVYLQMNSLKPEDTAVYYCNADCTTFGLYSWGQGTQVTVSS | low polyreactivity
6 | QVQLVESGGGLVQAGGSLRLSCAASGGIFTKNAMGWYRQAPGKERELVAGISRTGGNTYYADSVKGRFTISRDNAKYTVYLQMNSLIPEDTAVYYCNALYGGPHRLRYDYWGQGTQVTVSS | low polyreactivity
7 | QVQLVESGGGLVQAGGSLRLSCAASGRTFGRYSMGWYRQAPGKERELVAAISYSTDSTYYADSVKGRFTISRDNAKNTVYLQMNSLKPEDTAVYYCAALGYHRYRNYDYWGQGTQVTVSS | low polyreactivity
8 | QVQLVESGGGLVQAGGSLRLSCAASGRTFGRYAMGWYRQAPGKERELVARIRTSGGRTYYADSVKGRFTISRDNAKYTVYLQMNSLKPEDTAVYYCATTSQPWYYWSTQGDDYWGQGTQVTVSS | low polyreactivity
9 | QVQLVESGGGLVQAGGSLRLSCAASGGIYYRYAKGWYRQAPGKERDLVAVISRSGSTYYADSVKGRFTMSRDNAQNTVYLQMNSLKPEDTAVYYCAAYSRCRYGLVPYDYWGQGTQVTVSS | high polyreactivity
10 | QVQLVESGGGLVQAGGSLRLSCAASGGTFYYYAMGWYRQAPGKERELVAAITRSGGNTYYADSVKGRFTISRDNAKNTVYLQMNSLKPEDTAVYYCAAPFVKFVGSLVYAGYDSWGQGTQVTVSS | low polyreactivity
11 | QVQLVESGGGLVQAGGSLRLSCAASGRTFSPYAMGWYRQAPGKERELVAAITSRGASTYYADSVKGRFTISRDNAKNTVYLQMNSLKPEDTAVYYCNSGRTYRRLGDYWGQGTQVTVSS | high polyreactivity
12 | QVQLRESGAGGRQPAPEMRGERQYFYWSADGLVSQGPGKEREFDAGIDRGTITNYADSVRGRFTISRDNAKNTVYLQMNSLKPEDTAVYYCAVPAYGDPRSYYWGQGTHVTVSS | high polyreactivity
13 | QVHLVESGGGLVQAGGSLRLSCSASGSIFGKYAMGWYRQAPGKERELVAAISWSGTSTYYADSVKGRFTISRDNAKNTVYLQMNSLKPEDTAVYYCAAESRVYGYNYWGQGTQVTVSS | high polyreactivity
14 | QVQLVESGGGLDQAGGSLRLSCAASGRTFTVNTMGWYIQAPGKERELVAAIPNGGSTNYADSVKGRFTISHDNAKNTVYLQMNSLKPEDTAVYYCAAYYYYTLYYRYDYWGQGTQVTVSS | low polyreactivity
15 | QVQLVESGGGLVQAGGSLRLSCAASGSILYRNAMGWYRQAPGKEREFVAAISWRGGSTYYADSVKGRFTISRDNAKNTVYLQMNSLKPEDTAVYYCAKGGYRSPPGRYDGYYWGQGTQVTVSS | high polyreactivity
16 | QVQLVESGGGLVQAGGSLRLICAASGIIFDDYAMVWYRQAPGNERELVAAISVSGGSTYYADSVKGRFTISRDNAKNTVYLQMNSLKPEDTAVYYCAARLRWRYSYDYWGQGTQVTVSS | high polyreactivity
17 | QVQLVESGGGLVQAGGSLRLSCAASGFIFQANAMGWYRQAHGKERELVAAIRSGDRTYYADSVKGRFTISRDNAKNTVYLQMNSLKPEDTAVYYCAAFYHHYYRYDYWGQGTQVTVSS | low polyreactivity
18 | QVQLVESGGGLVQAGGSLRLSCAASGFTFYSNAMGWYRQAPGKERELVAAISYSGGSTYYADSVKGRFTISRDNAKNTVYLQMNSLKPEDTAVYYCAAGGLQQGDYWGQGTQVTVSS | low polyreactivity
19 | QVQLVESGGGLVQAGGSLRLSCAASGNIFIYNAMGWYREAPGKERELVAVISNSGSTYYADSVKGRFTISRDNAKNTVYLQMHSLKPEDSAVYYCNKDGGGDSYWYDYWGQGTHVTVSS | low polyreactivity
20 | QVQLVESGGGLVQAGGSLRLSCAASGFIFRYYAKGWYRQAPGKERELVAAISSSGGSTYYADSVKGRFTISRDNAQKTVYLQMNSLKPEDTAVYYCNAYNYGYIGYGYNYWGQGTQVTVSS | high polyreactivity
21 | QVQLVESGGGLVQAGGSLRLSCAASGFTFGWYAMGWYRQAPGKERELVASISWSGSTTYYADSVKGRFTISRDNAKNTVYLQMNSLKPEDTAVYYCNARRSYVRNDFDYWGQGTQVTVSS | high polyreactivity
22 | QVQLVESGGGLVQAGGSLRLSCAASGSIFLTYTMGWYRQATGKERELVAAITDSDGSTSYADSVKGRFTISRDNAKNTVYLQMNSLKPEDTAVYYCAVEGYWYAGWYAMDYWGQGTQVTVSS | low polyreactivity

Row | Sequence | polyreactivity (PSR sort gate)
23 | QVQLVESGGGLVQAGGSLRLSCAASGYIFKSYVMGWNRQEPGKESELVAAITWSGGSTYYADSVKGRFTISRDNAKNTVYLQMNSLKPEDTAVYYCAAYRRRYRTTYDYWGQGTQVTVSS | high polyreactivity
24 | QVQLVESGGGLVQAGGSLRLSCASSGFTLGYYTMGWYRQAPGKESELVAAIRSNGGSTYYADSVKGRFTISRDNAKNTVYLQMNSLKPEDTAVYYCAARRWRYVGTRYDYWGQGTQVTVSS | high polyreactivity
25 | QDQLVESGGGLVQAGGSLRLSCAASGLIFNVNNMGWYRQAPGKDRELVAAISWSGTSTYYADSVKGRFTISRDKAKNTVYLQMNSLKPEDTAVYYCAAYNHRWEYEYWGQGTQVTVSS | high polyreactivity
26 | QVQLLESGGGLVQAGGSLRLSCAASGRTFAYNAMAWDRQAPGTERELVADITSGGSTYYADSVKGRFTISRDNAKNTVYLQMNSRKPEDTAVYYCAGYPQFWYWDYNYWGQGTQVTVSS | high polyreactivity
27 | LVQLVESGGGLVQAGGSLRLSCAASGSTFFYAMGWYRQAPGKERELVAGIVWSGGSTYYADSVKGRFTISRDNAKNTVYLQMNSLKPEDTAVYYCPAEYTDDYWGQGTQVTVSS | low polyreactivity
28 | QVQLVESGGGLVQAGGSLRLSCAASGLIFSPYAMGWYRQAPGKERELVAAISWRGGRTSYADSVKGRFTISRDNAKNTVYLQMNSLKPEDTAVYYCATRNSSKRRGYYYWGQGTQVTVSS | high polyreactivity
29 | QVQLVESGGGLVQAGGSLRLSCAASGSTFEQYAMGWYRQAPGKERELVAAINRGGSTYYADSVKGRFTISRDNAKNTVYLQMKSLKPEDTAVYYCAVYAFVRYRSRYGYWGQGTQVTVSS | high polyreactivity
30 | QDQLVESGGGLVQAGGSLRLSCAASGITFSSNAMGGYRQAPGKERELVAAISRNGDRTYYADSVKGRFTISRDNAKNTVYLQMNSLKPEVTAVYYCATAYPGSRRDYWGQGTQVTVSS | high polyreactivity
31 | QVQLVESGGGKVQAGGSLRLSCAATGRNFGVYDMGSYRHSPGKERELVAAITARGGSTYYADSVKGRFTISRDNAKNTVYLQMNSLKPEDTAVYYCAASAGSAGHSGGYWGQGTQVTVSS | high polyreactivity
32 | QVQLVESGGGLVQAGGSLRLSCAASGFTFPHYAMGWYRQAPGKERELVARIRWGGGSTYYADSVKGRFTISRDNAKNTVYLQMNSLKPEDTAVYYCARTTSYLTSTRRYYYWGQGTQVTVSS | high polyreactivity
33 | QVQLVESGGGLVQAGGSLRLSCAASGSIFYSNAMGWYRQAPGKERELVAAITRRGGSTYYADSVKGRFTISRDNAKNTVYLQMNSLKPEDTAVYYCNRDPDIYIGYDYWGQGTQVTVSS | high polyreactivity
34 | QVQLVESGGGLVQAGGSLRLSCAASGSTFFTNAMGWYRPAPGKERELVAAITINDGSTFYADSVKGRFTISRDNAKNSDYLQMNSLKPEDTAVYYCNTDGVDLYDYWGQGTQVTVSS | low polyreactivity
35 | QVQLVESGGGLVQAGASLRLSCAASGSIFYHNTMGWYRQAPGKERELITYYADSVKRRFTISRDNAKNTVYLQMNSLKPEDTAVYYCAASPVYRTGPGDYDYWGQGTQVTVSS | low polyreactivity
36 | HVQLQESDGGLVQAGGSLRLSCAASGSISPQYYMCWYRQAPGKEREFVAISKGTTTYYADSVKGRLTISRVNAKNTVYLQMNSLKPEDTAVYCCAAGRWLQKVHAYWDQGTQVTVSS | low polyreactivity
37 | QVQLVESGGGLVQARGSLRLSCAASGRTLYDYAMGWYRPAPGKERELVAAISSSGATTYYADSVKGRFTISRDHAKNTVYLQMNSLKPEDTAVYYCAAESVHQAWSGYYYWGQGTQVTVSS | high polyreactivity
38 | QVQLQESGGGLVQAGGSLRLSCAASGYISQSSVMGWYRQAPGKEREFVASISYGATTYYADSVKGRFTISRDNAKNTVYLQTNSPKPEDTAVYYCAVWVKRGFSHRYWGQGTQVTVSS | high polyreactivity
39 | QVQLVESGGGLVQAGGSLRLSCAASGRIFRVYAMGWYRQAPGKERELVAAISWSGGRTYYADSVKGRFTISRDNAKNTVYLQMNSLKPEDTAVYYCAAERGGPTYYSGGDYDYWGQGTQVTVSS | high polyreactivity
40 | QVQLVESGGGLVQSGGSLRLSCAATGSTFWNYAMGWYRQAPGKERELVAAITRGSSTNYADSVKGRFTISRDNAKNTVYLQMNSMKPEDTAVYYCAKRVGRWSAFYYWGQGTQVTVSS | high polyreactivity
41 | QVQLVESGGGLVQAGGSLRLSCAASGFIFLPYAMGWARQAPGKERELVAAITRGGRTYYADSVKGRFTISRDNAKNTVYLQMNSLKPEDTAVYYCAATTYLVWGYNYWGQGTQVTVSS | low polyreactivity
42 | QVQLVESGGGLVQAGGSLRLSCAASGFIFGYNAMVWYRQAPGKERELVARINSGGNTNYADSVKGRFTISRDNAKNTVYLQMNSLKPDDTAVYYCARDASNRYDYWGQGTLVTVSS | low polyreactivity
43 | QVQLQESGGGLVQAGGSLRMSCAASGTIVSEANMGWYRQAPGKERELVATIGQGSTTNYADSVKGRFTISRDNAKNTVYLQMNSLKPEETAVYYCAVVTVDPVGFVYWGQGTQVTVSS | low polyreactivity
